The record followed here is patent EP1988168A1 (Max-Planck-Gesellschaft zur Förderung der Wissenschaften …, dated 2008).

To fix the notation:
B2: Syn7002-RbcL (enzyme, Synechococcus sp. PCC7002, UniProt Q44176 1-470, looked up)
chain: MQTKSAGFNAGVQDYRLTYYTPDYTPKDTDLLACFRMTPQPGVPPEECAAAVAAESSTGTWTTVWTDGLTDLDRYKGRCYNVEPVPGEDNQYFCFVAYPLDLFEEGSVTNVLTSLVGNVFGFKALRALRLEDIRFPVALIKTYQGPPHGITVERDLLNKYGRPLLGCTIKPKLGLSAKNYGRAVYECLRGGLDFTKDDENINSQPFMRWRDRFLFVQEAIEKSQAETNEVKGHYLNVTAGTCEEMLKRAEFAKEIGTPIIMHDFLTGGFTANTTLAKWCRDNGVLLHIHRAMHAVIDRQKNHGIHFRVLAKCLRLSGGDHLHSGTVVGKLEGDRAATLGFVDLMREDYVEEDRSRGVFFTQDYASLPGTMPVASGGIHVWHMPALVEIFGDDSCLQFGGGTLGHPWGNAPGATANRVALEACVQARNEGRSLAREGNDVLREAGKWSPELAAALDLWKEIKFEFDTVDTL
notes: Stood in the assays as monomers, dimers, assembly intermediates or RbcL8 core complex, depending on the experiment; also called wildtype RbcL; RbcL8
B3: AnaCA-RbcX (other, Anabaena sp. CA, UniProt Q44212 1-135, looked up)
chain: MNLKQIAKDTAKTLQSYLTYQALRTVLAQLGETNPPLALWLHNFSAGKVQDGEKYIEELFLEKPDLALRIMTVREHIAEEIAEFLPEMVVTGIQQANMEKRRQHLERMTQVSLSHPSPESEQQQFSDPDWDNLAS
notes: also called RbcX from Anabaena sp; CA
B4: Syn7002-RbcX (other, Synechococcus sp. PCC7002, UniProt Q44177 1-134, looked up)
chain: MEFKKVAKETAITLQSYLTYQAVRLISQQLSETNPGQAIWLGEFSKRHPIQESDLYLEAMMLENKELVLRILTVRENLAEGVLEFLPEMVLSQIKQSNGNHRRSLLERLTQVDSSSTDQTEPNPGESDTSEDSE
notes: Assembly chaperone; also called RbcX of Synechococcus sp; PCC7002; non-tagged Syn7002-RbcX
B5: Syn7002-RbcL peptide 2, KEIKFEFDTVD (peptide)
peptide: KEIKFEFDTVD

The target in assay [1] is T1, Syn7002-RbcL(F462A, F464A) (Synechococcus sp. PCC7002, UniProt Q44176 1-470).
T1 construct: also called RbcL(F462A/F464A) double mutant
In words: pulse-chase in vitro translation, Bis-Tris Native-PAGE, autoradiography.

The target in the next assay is T2, GroEL (E. coli, UniProt P0A6F5 2-548).
T2 construct: also called E. coli GroEL; chaperonin
T2 sequence (P0A6F5 2-548 limits assumed): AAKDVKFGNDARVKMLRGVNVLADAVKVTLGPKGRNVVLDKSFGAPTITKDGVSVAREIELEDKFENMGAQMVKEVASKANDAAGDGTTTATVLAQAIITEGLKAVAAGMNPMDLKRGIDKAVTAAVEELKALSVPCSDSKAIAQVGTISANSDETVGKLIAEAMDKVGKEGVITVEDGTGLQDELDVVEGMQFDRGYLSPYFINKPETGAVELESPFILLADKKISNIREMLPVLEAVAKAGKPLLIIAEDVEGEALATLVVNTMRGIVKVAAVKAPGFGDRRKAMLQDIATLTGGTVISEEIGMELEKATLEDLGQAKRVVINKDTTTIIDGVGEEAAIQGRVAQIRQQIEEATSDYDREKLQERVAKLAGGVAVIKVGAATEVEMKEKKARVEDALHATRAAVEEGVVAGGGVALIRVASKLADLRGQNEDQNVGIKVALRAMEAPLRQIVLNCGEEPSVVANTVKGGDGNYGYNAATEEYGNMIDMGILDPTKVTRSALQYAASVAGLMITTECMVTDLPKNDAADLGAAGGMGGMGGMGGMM
In words: in vitro translation, Native-PAGE, autoradiography.

The assay “Syn7002-RbcX” deals with B4. In words: isothermal titration calorimetry, peptide titrated into RbcX dimer at 22°C. In general terms: Isothermal titration calorimetry measures the heat released or taken up as one component is titrated into another.
The target of the assay “AnaCA-RbcX” is B3. The assay is described as above.
For another assay, the target named is Syn7002-RbcL(1-459) (Synechococcus sp. PCC7002, UniProt Q44176 1-459). In words: coexpression in E. coli, Native-PAGE and immunoblot. (A western blot detects proteins with antibodies after separation by electrophoresis.)
For assay [2], the target named is T1, Syn7002-RbcL(F462A, F464A). The description is as above.
Assay [3] deals with B5. The assay is described as follows: comparison of the ITC affinities for the C-terminal RbcL peptide.
In assay [4] the target is B2. In words: displacement of RbcL from anti-FLAG beads carrying the Syn7002-RbcL/Syn7002-RbcXFLAG complex, 15 min at room temperature, immunoblot; competitor Syn7002-RbcXFLAG.
The target of assay [5] is B2. In words: co-immunoprecipitation with anti-FLAG antibody from E. coli extract.

B1: AnaCA-RbcXFLAG (other, Anabaena sp. CA)
chain: MDYKDDDDKAGMNLKQIAKDTAKTLQSYLTYQALRTVLAQLGETNPPLALWLHNFSAGKVQDGEKYIEELFLEKPDLALRIMTVREHIAEEIAEFLPEMVVTGIQQANMEKRRQHLERMTQVSLSHPSPESEQQQFSDPDWDNLAS
notes: also called FLAG-tagged AnaCA-RbcX
On to B1, for which, in assay [1], the binding result was “no binding (tested: 40 µM RbcX)”. Regarding B2, the binding result in the assay with GroEL was “binds”.

Usually Kd stands for the free concentration of one partner at which half of the binding sites on the other are occupied at equilibrium, for simple one-to-one binding. High values mean lower affinity, low ones higher affinity. Take EIKFEFD (also called peptide EIKFEFD) [Syn7002-RbcL peptide 1, EIKFEFD]: the dissociation constant Kd in the assay with Syn7002-RbcX was approximately 230 µM; with AnaCA-RbcX it was approximately 60 µM.

Consider B3, for which the binding result (with Syn7002-RbcL(1-459); in assay [2]) was “no binding” in each case. For the same molecule, the “fold higher affinity (against Syn7002-RbcX)” value in assay [3] turned out to be 30 fold.

By IC50 is commonly meant the concentration needed to halve the response being measured. A high value points to weaker potency in that assay. Consider B4, for which the IC50 with Syn7002-RbcL [4] was approximately 1 µM. With B5, the Kd with Syn7002-RbcX was approximately 160 µM; with AnaCA-RbcX it was approximately 5 µM.

B6: Syn7002-RbcXFLAG (other, Synechococcus sp. PCC7002)
chain: MDYKDDDDKAGMEFKKVAKETAITLQSYLTYQAVRLISQQLSETNPGQAIWLGEFSKRHPIQESDLYLEAMMLENKELVLRILTVRENLAEGVLEFLPEMVLSQIKQSNGNHRRSLLERLTQVDSSSTDQTEPNPGESDTSEDSE
notes: Coexpressed with RbcL in E. coli and pulled down with anti-FLAG M2 beads; also called N-terminally FLAG-tagged wildtype RbcX; FLAG-tagged Syn7002-RbcX
In the case of B6, the binding result with Syn7002-RbcL [5] is recorded as “binds”.
